Measured values reported in patent US20040002075A1, “Heat-resistant cysteine synthase” (priority 2001, published 2004).

What was measured:
[1] = Optimal temperature, cysteine synthase activity assaying method (2); assay type: biochemical; settings: 4 minutes reaction, FIG. 2
Procedure: The optimal temperature was determined by the following assaying method (2) for cysteine synthase activity. Assaying Method of Cysteine Synthase Activity (2) Purified enzyme was added to 50 mM potassium phosphate buffer (pH 7.5 or 7.0) containing 20 mM O-acetylserine and 2 mM sodium sulfide as substrates, and 0.2 mM pyridoxal 5′-phosphate so as to establish an enzyme concentration of 0.8 μg/mL, the reaction was brought about for 4 minutes, and the amount of cysteine synthesized was determined by the ninhydrin method to assay the enzyme activity.

[2] = Heat resistance, residual activity after incubation, assaying method (1); assay type: physicochemical; settings: for residual activity: 0.3 mg/mL enzyme in 50 mM potassium phosphate buffer (pH 6.7), FIG. 3
Procedure: The optimal pH was determined by the following assaying method (1) for cysteine synthase activity. Assaying Method of Cysteine Synthase Activity (1) Four enzyme solution samples were prepared by adding cysteine synthase to 50 mM potassium phosphate buffer (pH 6.7) containing 1 mM EDTA and 0.2 mM pyridoxal 5′-phosphate so as to obtain an enzyme concentration of 0.3 mg/mL. The samples were incubated for 6 hours at 4° C., 80° C., and 100° C., respectively, to assay residual activity.

B1: cysteine synthase: Heat-resistant cysteine synthase (O-acetylserine sulfhydrylase) of hyperthermophilic archaea Aeropyrum pernix K1, SEQ ID NO: 2, produced recombinantly in E. coli (protein)
chain: VALADISGYLDVLDSVRGFSYLENAREVLRSGEARCLGNPRSEPEYVKALYVIGASRIPVGDGCSHTLEELGVFDISVPGEMVFPSPLDFFERGKPTPLVRSRLQLPNGVRVWLKLEWYNPFSLSVKDRPAVEIISRLSRRVEKGSLVADATSSNFGVALSAVARLYGYRARVYLPGAAEEFGKLLPRLLGAQVIVDPEAPSTVHLLPRVMKDSKNEGFVHVNQFYNDANFEAHMRGTAREIFVQSRRGGLALRGVAGSLGTSGHMSAAAFYLQSVDPSIRAVLVQPAQGDSIPGIRRVETGMLWINMLDISYTLAEVTLEEAMEAVVEVARSDGLVIGPSGGAAVKALAKKAAEGDLEPGDYVVVVPDTGFKYLSLVQNALEGAGDSV
modifications: Aeropyrum pernix K1
**Q.** For B1, which optimal temperature ([1]; 50 mM potassium phosphate buffer pH 7.0) is on record?
**A.** about 60 °C

**Q.** And the optimal temperature ([1]; 50 mM potassium phosphate buffer pH 7.5)?
**A.** about 50 °C

**Q.** And the residual activity ([2]; after 6 hours of incubation at 80° C.)?
**A.** about 97%

**Q.** And the residual activity ([2]; after 6 hours of incubation at 100° C.)?
**A.** about 85%

**Q.** What about the “activity of the enzyme after heat-treatment” value ([2]; heat-treatment at 80° C. for 6 hours) of the same molecule?
**A.** substantially unimpaired
